The numbers were not newly measured in PMC6293969, which cites them from elsewhere.

For one series, the target named is CLK1 (Homo sapiens) (UniProt P49759).
The target of another series is SRSF1 (Homo sapiens) (UniProt Q07955).
Sequence of UniProt Q07955 (Q07955 2-248): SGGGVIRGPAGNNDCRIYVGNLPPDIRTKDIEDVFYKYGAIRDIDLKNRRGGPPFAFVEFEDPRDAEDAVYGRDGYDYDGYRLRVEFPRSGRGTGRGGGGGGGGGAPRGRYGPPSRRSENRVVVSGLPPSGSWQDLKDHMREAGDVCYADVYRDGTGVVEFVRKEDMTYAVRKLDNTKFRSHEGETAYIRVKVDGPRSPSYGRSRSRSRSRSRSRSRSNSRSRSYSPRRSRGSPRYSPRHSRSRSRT

Sequence of UniProt P49759 (P49759 whole entry): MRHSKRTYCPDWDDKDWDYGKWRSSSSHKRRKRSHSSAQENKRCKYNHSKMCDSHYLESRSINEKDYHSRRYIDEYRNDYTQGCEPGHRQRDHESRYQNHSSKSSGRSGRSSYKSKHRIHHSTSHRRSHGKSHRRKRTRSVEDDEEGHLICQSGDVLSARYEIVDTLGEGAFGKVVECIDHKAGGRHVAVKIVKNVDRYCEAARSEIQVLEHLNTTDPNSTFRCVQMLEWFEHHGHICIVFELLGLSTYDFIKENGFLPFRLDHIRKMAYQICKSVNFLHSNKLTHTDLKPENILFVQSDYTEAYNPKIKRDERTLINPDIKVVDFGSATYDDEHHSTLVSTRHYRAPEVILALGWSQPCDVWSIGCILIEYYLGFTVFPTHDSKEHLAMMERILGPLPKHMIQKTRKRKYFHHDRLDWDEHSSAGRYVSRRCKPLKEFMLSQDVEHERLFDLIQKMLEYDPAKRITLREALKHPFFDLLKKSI

Take SRPK1 (from UniProt Q96SB4): the figures for the dissociation constant (Kd) in the series with CLK1 (Homo sapiens) and in the series with SRSF1 (Homo sapiens) were 20 nM and 100 nM, respectively.
